Test: label from the status in PepcDB records

| Sequence | protein production |
| --- | --- |
| MDIRQVTETIAMIEEQNFDIRTITMGISLLDCIDPDINRAAEKIYQKITTKAANLVAVGDEIAAELGIPIVNKRVSVTPISLIGAATDATDYVVLAKALDKAAKEIGVDFIGGFSALVQKGYQKGDEILINSIPRALAETDKVCSSVNIGSTKSGINMTAVADMGRIIKETANLSDMGVAKLVVFANAVEDNPFMAGAFHGVGEADVIINVGVSGPGVVKRALEKVRGQSFDVVAETVKKTAFKITRIGQLVGQMASERLGVEFGIVDLSLAPTPAVGDSVARVLEEMGLETVGTHGTTAALALLNDQVKKGGVMACNQVGGLSGAFIPVSEDEGMIAAVQNGSLNLEKLEAMTAICSVGLDMIAIPEDTPAETIAAMIADEAAIGVINMKTTAVRIIPKGKEGDMIEFGGLLGTAPVMKVNGASSVDFISRGGQIPAPIHSFKN | not failed |
| MDITMKIAPLLLALGAAGLACCAHAADPKPFTVQQLVKLNKLHSAVVSHDGTKLVYGLKTVNDKGEASSDLYLLDLTQADAKPLQLTSAAGTEHDISFANDDKSIYFLASRSGSSQLFQLPLTGGEAQQVSDLPLDIDGYKLSNDGKQIVLSMRVFPECKDLACSKDKFKAEEERKSTGREYKQLMVRHWDTWEDHARNHLFVGTLNGEKLTKVVDITQGLDTETPPKPFSGMEEVTFTPDGQYVVYSAKAPSKDQAWTTNYDLWQVSVNGGKATNLTADNIAWDAQPTFSSDGRYMAYLAMTKPGFEADRYRIMLRDTSTGQSKEVAPLWDRSPSSLMFAPDNRTLYVTAQDIGQVSIFKVNTQFGDVQSVYSDGSNSLIAIADDQLIFDSKTLVEPGDLYRINTDGQGLKRLTEVNKDKLAEIKFGEFQQFSFKGWNNEDVYGYWIKPANYQEGKKYPIAYLVHGGPQGSFGNGFSGRWNAQLWAGAGYGVVMVDFHGSTGYGQAFTDSISQDWGGKPLEDLQKGLAAVSQQQKWLDPQNACALGGSYGGYMMNWIQGNWNDGFKCLVNHAGLFDMRSMYYVTEEVWFPEHEFGGTYQDNKALYEKFNPVNYVENWKTPMLVIHGEKDFRVPYGQGLAAFSFMQRKGIPSELLIYPDENHWILKPENLEQWYANVFRWMDSWTKK | failed |
| MDIVTLKDFYASVLGKRVQETLCGQLNLCWPDLTGKRVMGFGYALPYLSALRMRAQQCLAFMPAGQGALPWPCADKVATALVFEEDLPLPDASIDCILLIHALEYTENSFETLNEIWRVLVPNGQLIVIVPNRSGLWARNACTPFGYGEPYSRQQIVRLFEKTHFVSGSIQEVVHYMPSSGSVSRFFSFFYEPVARHLLPYFGGLLICQAQKRVYQGLEHHHHHH | failed |
| MDIWNFFTSFIVQSIAFLTHEVGVGEAVAIILFTLIGRLVLMPINLLAMANMYRNKKAISALKPELDKIKVIHKDKPNEIAKSTMALYKKNNIKILDKKSVINIASQGVFGFGMFQALQQIVFNSKFAWIANIAKPDVALALLVGVITYFSMIMMPGSAEQTSTLLFIIPAIICIITLISFPSAIGLYWATSSVTSLLQSLVLNNYFQKQEINKAI | failed |
| MDKENEYNKMCEEHDKYFKNLFKNLNRKIEYTFACEKENTYDDSVSNSIYTNSNQNEDNISYNNNNINNDNISSSSISKNSNNTKNSSFNETKNINDDKIKYDDKNVYDDKNINDDKNIYDDKYLYDDKNINHDKYSYDDKNINDDKYLYDDKNLYDGNNIYEENNYNNNNTNGHQMKSPTYHMKNSVQNITIYTSINKNDISKDINKINEKNTANINTSHIYQIKNDENNNNIYNNVEHIKSLCESYKNYDNDHLLYYKKHSHSKEDIHNYPIFNNAKTSQLENSNNDFLNIMNNNIKNNISEMESSKKKKKSNLLITNEIEDKLSNIQINHTNKINENNTIQYGQKTKGNKIGNHKTNIKEKLNDLIENIHLKNNKIENMNNMDDMNDMDNMNNMDDMDNTDNMNNRGNMNNRDNINNRDNMNNSNNMDNKDNMNNKDNINNKDNMNNKDNINNKDNINNLNCIDNMKHDKLQKDHLETPPIHKSPITRKSKNNIMDILNNKMNITSLENVDTSTPKYVKYNTIHREIMNPRQHFFNQNKSSIDHIICL | failed |
| MDKESVDTLFGMGLTAYQAKDYTKAIHALEHLREHDPSYTTLYSYLAKSYEENGEPEKAIAVLRDGLTQDEFNKEMFLEAGKLAVTLRLPEEAEEFYRQAIVLDEEFSEAIMQLNKLLLAKENYEGVIELVEGLGEEVISEPQIFWDVSVAYQETEQYNKAKANYELAYPHFTNNPTFLKEYGLFLREEGEHAKSQEVLRSYLELEPLEHHHHHH | not failed |
| MDKFYHFLTLTGIGLYWFLVAGVTLRVVLKRRAVSVSLAWLMIIYILPVLGVACYFLFGELNLGRKRAERAKEMFTPFAKWFSQLNDCHAHMPETMGRHIYRIDELCNNRLGLPALSGNTLSLQQSPDEILHSIIEDIENAKTSIRMVFYIWHPGGLADSVASALIQASKRGVDVKLLLDSAGSPRFFRSPWYKMMKDSGIEVIQALEVKMWRMFLRRLDLRQHRKIIVIDDEIAYTGSMNLVDPAYFKQSSGVGRWIDIMVRVTGPTVNVLSAIHCWDWEVETGERYLPKLPECKIDNSKYQHPIQVVPSGPGMPEYLIYQVLTLAINQANRSVRITTPYFVPNTDLLETLKMTAQRGIDVELIIPHKNDSLMVQWASRAFYSELLAAGVKIYEFYGGLLHTKSVVIDDQFCLVGTVNMDMRSLWLNFEVTLAVDDEEFTKQLSWLQDGYIKQSHPVVLDEWEKRSLYSRFLERVFYLFNPLL | failed |
| MDKHIIGENAGKLWRLLSTDVHRKWTLQEVKDATGFNDLEAASAIGWLAREDKIQFELEHHSTKDKNVFLYLMLNVYFLEHHHHHH | not failed |
| MDKHKKNNQKEKRVKRNLKTLLLGSPREITIPGSRFPNGTQNLVPVVDIQKGVLITEDGRYIKVLEIVPTNFYLKSRIEQQNIIYYFSCYLKIAPQSLQILVCTQRADIDAYCDQMEKYYNREKNENCKAMILEDAQLVNYLASYEAVTRRFYLIYEYKGEATEFTEISKELADQAETAYQYLDYCGLEVLRHDNYDEFLLRTVYTAYHKQSARNINFSALMEQVGPVFNTPEITEDQLEEEDSEGITTIQDVLAPTEADLEHSKYILIDGVYHAYLYITGYSYPTERGLAWLSPLIELGDGISLSFFLEKKRKEQILSKVVKTTMINRSRLRDIEDIRADYEELDDAIYSGMYIKDRLNRDGEDFFYMHTLIEVTALDETTLNKRIKQVQNLCVSMDMTARRADWCHEQCFRSMLPIAKLDMDIAKRTQRNVLTSGAAGAFPFSSFELCDNKGVLMGINLHNNSAVIVDNFNSDIYSNGNLAIFGMSGAGKTYTLLLLAMRLRMCGVQVFIIAPEKGFEYRCACEAIGGQFLRLSPGSEDCINLMEIRRSTLDIDSNLANNIQRNDSVLLSKVQDLHTYIRLRYPQITPEEAYQLNIAILECYESFGITKDNRSLLNPDGSFKAMPDFTHLYSCLLKYPSLKNVALAVKEIIDFGMGGQTNVDLFSSFIVLDTSGAKKKDISSSTFVATSFIRDELSRSRTRKKAVLGDELWVIAGEEGNEQAADFIIEMVKLIRGYGAIFVSATQNTLDYFALRDGKFGDALLNNSRLKLLLQMEEAEAIKLQEKLGLSDEEVMQVVRCGRGQGLLCAGKNRIGIEIRSSQTEYELITTNRTDLEKREARTDTAEL | failed |
| MDKILEILKDFGIVELRPPQKKALERGLLDKNKNFLISIPTASGKTLIGEMALINHLLDGNKNPTNKKGIFIVPLKALASEKYEEFKSKYERYGLRIALSIGDYDEDEDLSKYHLIITTAEKLDSLWRHKIDWINDVSVVVVDEIHLINDETRGGTLEILLTKLKEFNVQIIGLSATIGNPDELAEWLNAELIVDDWRPVELKKGIYKNEAIEFINGEIREIKAVDNNDIYNLVVDCVKEGGCCLVFCNTKRNAVNEAKKLNLKKFLTEEEKIRLKEIAEEILSILEPPTEMCKTLAECILNGSAFHHAGLTYQHRKIVEDAFRKRLIKVICCTPTLCLNANTEILQESGFRKITELNKDEKVFALCGKEIKPVDGWKVHKTPQHEYNIVVKTVNGLEITTTPNHIFLVKENGSLKEKEAKDLKVGDYVATVDRIRVKEKDIDLSNGDLYFIGYFIGDGYTGVIEKNTLKATPDLAFNPKYPPNFDDSELHKKYFLKCRISKGVAHYIYSKKLRKIFNKLNMLTKDNKNIDAFCNLPLDKLAYLIAGLFDSDGYIYLNRKNIEFYSISEKLVEQLQFVLLRFGIHSSIRKKKTKTMVSPTNGKEYKCKDIYVLTIRDFMSIKRFYENIPLRHEEKRRKLEEIIKNKEIGQIPSEFVALRFTPIAKIWCDCGFSVDLTMFKPRTKRQRELNKKRVKLLFELLDGKKLITNYKEYYSKRKNPYFDFIVREKINGNNYYSLNEKGRVLMSLLNKHIKDKENLEEMYNFLVNLEKCPICGKPIHKEMRYSWKKECYDGDIYWDRIKEIKKIKVNDKYAYDIELPDDGSNSHYIVANGFIVHNSAGLNLPCRRAIVKDLTRFTNKGMRYIPIMEIQQCIGRAGRPGLDPYGEGIIVAKNDRDYLRAYQALTQKPEPIYSKLSNQAVLRTQLLGLIATGEIRDEYDLEWFIRNTFYAHQYGNLREVAKNINEVIRFLEENEFIIDFMPTELGKRVSELYIDPLSAKFIIDGLEEMENEEEIYYLYLISKTLEMMPNLRVYNSEELNLIDEMDSLGIKSFEIEDLEAFKTAKMLYDWINEVPEDEILKRYKIEPGILRYKVENAVWIMHALKEIAKLIGKSSDIPEKLEIRLEYGAKEDIIELLSIKYIGRVRARKLYNAGIRSIEDIINNPSKVASIIGEKIAKKILDELGVKFGQQKLSF | failed |
| MDKLEAMQVYVCVVDTHSFIRAAEVLGVPRSTVSRVVKELESWLKIQLLQRTTRKLSVTAEGRRYYEECKRVLADIAAMESSFPGRAAQPKGRFKVGMPQSLARHCIIPTLPAFLRQYPELELILCSSDSVEDIILQGYDCVIRAGRIDDSTTLVARPLASFNWVIAASPTYIERYGSPENLDDLQKHYAVGYLNHRTGRTTDWFFTREGEDYAMRVQETLVVDDTDAYIQAGIQGLGLIRVASYLVAPYLHSGALVTCMDNHSYDLPLALVYPQNRFLPPAVRAFYHWCKTALSQPEPFC | failed |
| MDKLNKITVPASQKLRQLQKMVHDIKNNEGGIMDKIKKLKVKGPPSVPRRDYALDSPADEEEQWSDDFDSDYENPDEHSDSEMYVMPAEETGDDSYEPPPAEQQTRVVHPALPFTRGEYVDNRSSQRHSPPFSKTLPSKPSWPSAKARLASTLPAPNSLQKPQVPPKPKDLLEDEADYVVPVEDNDENYIHPRESSPPPAEKAPMVNRSTKPNSSSKHMSPPGTVAGRNSGVWDSKSSLPAAPSPLPRAGKKPATPLKTTPVPPLPNASNVCEEKPVPAERHRGSSHRQDTVQSPVFPPTQKPVHQKPVPLPRFPEAGSPAADGPFHSFPFNSTFADQEAELLGKPWYAGACDRKSAEEALHRSNKDGSFLIRKSSGHDSKQPYTLVAFFNKRVYNIPVRFIEATKQYALGKKKNGEEYFGSVVEIVNSHQHNPLVLIDSQNNTKDSTRLKYAVKVS | not failed |
| MDKLVKYQELVKKLLTNYASDDVSDQDVEVQLILDTERNHYQWMNVGWQGLNRIYRCVIHFDIKDGKIWLQQNLTDRNPAEELVMMGVPREDIVLGLQAPYKRQYTDYGVA | not failed |
| MDKNIIIGAMTALITPFKNGKVDEQSYARLIKRQIENGIDAVVPVGTTGESATLTHEEHRTCIEIAVETCKGTKVKVLAGAGSNATHEAVGLAKFAKEHGADGILSVAPYYNKPTQQGLYEHYKAIAQSVDIPVLLYNVPGRTGCEISTDTIIKLFRDCENIYGVKEASGNIDKCVDLLAHEPRMMLISGEDAINYPILSNGGKGVISVTSNLLPDMISALTHFALDENYKEAKKINDELYNINKILFCESNPIPIKTAMYLAGLIESLEFRLPLCSPSKENFAKIEEVMKKYKIKGF | not failed |

From a protein production outcome set (Wang et al. 2014)
